# Experimental data as given in publication PMC5138618.
# B1: CagL^ΔRGDΔTASLI double motif deletion, recombinant (natural protein)
# chain: EDITSGLKQLDSTYQETNQQVLKNLDEIFSTTSPSANNEMGEEDALNIKKAAIALLALLKANFEANELFFISEDVIFKTYMSSPELLLTYMKINPLDQNTAEQQCGISDKVLVLYCEGKLKIEQEKQNIRERLETSLKAYQSNIGGTASQTLVESLKNKNFIKGIRKLMLAHNKVFLNYLEELDALERSLEQSKRQYLQERQSSKIIVK
# B2: CagL^ΔRGD motif variant, recombinant (natural protein)
# chain: EDITSGLKQLDSTYQETNQQVLKNLDEIFSTTSPSANNEMGEEDALNIKKAAIALLALLKANFEANELFFISEDVIFKTYMSSPELLLTYMKINPLDQNTAEQQCGISDKVLVLYCEGKLKIEQEKQNIRERLETSLKAYQSNIGGTASLITASQTLVESLKNKNFIKGIRKLMLAHNKVFLNYLEELDALERSLEQSKRQYLQERQSSKIIVK
# Legend:
# Assay in all cases: ELISA; ELISA-like multiwell assay: wells coated overnight with 100 ng/well recombinant human integrin heterodimer in 100 mM sodium carbonate pH 9.5; blocked with FCS-containing or FCS-free blocker; purified CagL (2.5, 5, 10, 20 ng/well; 10 ng for the comparison of mutants) incubated 3 h, washed; bound CagL detected with anti-CagL antiserum AK271; values relative to wild type CagL set to 100% after background subtraction
# [1] = molecular target: recombinant human integrin αvβ5 (human) (UniProt P06756)
# [2] = molecular target: recombinant human integrin α5β1 (human) (UniProt P08648)
# [3] = molecular target: recombinant human integrin αvβ6 (human) (UniProt P06756)
# Sequence of recombinant human integrin αvβ6 (human) (P06756 31-1048, chain 1 of 2): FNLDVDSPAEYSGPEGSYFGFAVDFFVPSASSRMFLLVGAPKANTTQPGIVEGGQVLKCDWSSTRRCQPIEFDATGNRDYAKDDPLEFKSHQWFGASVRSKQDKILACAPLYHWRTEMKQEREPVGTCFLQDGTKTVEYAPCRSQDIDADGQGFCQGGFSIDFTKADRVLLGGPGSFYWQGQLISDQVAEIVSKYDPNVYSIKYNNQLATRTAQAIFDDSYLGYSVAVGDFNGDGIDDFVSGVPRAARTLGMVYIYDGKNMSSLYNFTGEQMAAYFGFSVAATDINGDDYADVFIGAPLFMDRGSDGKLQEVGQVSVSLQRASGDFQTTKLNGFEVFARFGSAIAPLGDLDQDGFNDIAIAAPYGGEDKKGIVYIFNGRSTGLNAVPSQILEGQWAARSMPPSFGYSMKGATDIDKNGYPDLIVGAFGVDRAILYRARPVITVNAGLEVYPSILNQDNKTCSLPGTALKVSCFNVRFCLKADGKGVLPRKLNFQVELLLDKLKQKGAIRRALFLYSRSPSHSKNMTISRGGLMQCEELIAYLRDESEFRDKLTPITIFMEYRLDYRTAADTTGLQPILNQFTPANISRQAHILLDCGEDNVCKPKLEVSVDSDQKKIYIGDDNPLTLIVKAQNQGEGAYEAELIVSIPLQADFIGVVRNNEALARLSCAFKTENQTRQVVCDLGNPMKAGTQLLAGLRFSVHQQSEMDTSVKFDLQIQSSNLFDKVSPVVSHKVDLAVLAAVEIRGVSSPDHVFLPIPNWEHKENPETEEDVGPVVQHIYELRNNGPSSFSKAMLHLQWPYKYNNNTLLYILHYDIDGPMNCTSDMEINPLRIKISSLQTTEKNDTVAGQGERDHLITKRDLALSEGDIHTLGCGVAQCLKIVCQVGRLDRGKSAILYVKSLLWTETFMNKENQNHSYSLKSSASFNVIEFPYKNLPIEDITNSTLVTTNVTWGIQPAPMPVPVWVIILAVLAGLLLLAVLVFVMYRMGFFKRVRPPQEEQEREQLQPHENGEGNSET
# Sequence of recombinant human integrin αvβ6 (human) (P18564 22-709, chain 2 of 2, further chain): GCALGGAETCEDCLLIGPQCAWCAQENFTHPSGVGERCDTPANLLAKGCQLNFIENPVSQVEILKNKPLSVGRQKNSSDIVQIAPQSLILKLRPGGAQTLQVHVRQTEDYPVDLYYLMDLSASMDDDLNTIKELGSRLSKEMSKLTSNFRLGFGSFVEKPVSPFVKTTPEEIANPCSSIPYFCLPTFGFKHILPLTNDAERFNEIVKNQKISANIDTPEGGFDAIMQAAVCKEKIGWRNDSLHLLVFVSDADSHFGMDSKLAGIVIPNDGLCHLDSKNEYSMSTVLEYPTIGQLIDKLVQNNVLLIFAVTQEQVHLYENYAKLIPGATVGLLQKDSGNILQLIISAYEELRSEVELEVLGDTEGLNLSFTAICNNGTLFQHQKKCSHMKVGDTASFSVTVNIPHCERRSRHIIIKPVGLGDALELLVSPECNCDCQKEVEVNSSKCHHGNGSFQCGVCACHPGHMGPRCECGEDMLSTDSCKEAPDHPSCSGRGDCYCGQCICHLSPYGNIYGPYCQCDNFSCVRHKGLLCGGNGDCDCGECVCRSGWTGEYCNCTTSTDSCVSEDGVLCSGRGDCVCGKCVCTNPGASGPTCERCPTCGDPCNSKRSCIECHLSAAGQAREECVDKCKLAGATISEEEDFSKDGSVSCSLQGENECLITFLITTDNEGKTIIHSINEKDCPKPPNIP
# Sequence of recombinant human integrin αvβ5 (human) (P06756 31-1048, chain 1 of 2): as the sequence (P06756 31-1048, chain 1 of 2) above
# Sequence of recombinant human integrin αvβ5 (human) (P18084 24-719, chain 2 of 2, further chain): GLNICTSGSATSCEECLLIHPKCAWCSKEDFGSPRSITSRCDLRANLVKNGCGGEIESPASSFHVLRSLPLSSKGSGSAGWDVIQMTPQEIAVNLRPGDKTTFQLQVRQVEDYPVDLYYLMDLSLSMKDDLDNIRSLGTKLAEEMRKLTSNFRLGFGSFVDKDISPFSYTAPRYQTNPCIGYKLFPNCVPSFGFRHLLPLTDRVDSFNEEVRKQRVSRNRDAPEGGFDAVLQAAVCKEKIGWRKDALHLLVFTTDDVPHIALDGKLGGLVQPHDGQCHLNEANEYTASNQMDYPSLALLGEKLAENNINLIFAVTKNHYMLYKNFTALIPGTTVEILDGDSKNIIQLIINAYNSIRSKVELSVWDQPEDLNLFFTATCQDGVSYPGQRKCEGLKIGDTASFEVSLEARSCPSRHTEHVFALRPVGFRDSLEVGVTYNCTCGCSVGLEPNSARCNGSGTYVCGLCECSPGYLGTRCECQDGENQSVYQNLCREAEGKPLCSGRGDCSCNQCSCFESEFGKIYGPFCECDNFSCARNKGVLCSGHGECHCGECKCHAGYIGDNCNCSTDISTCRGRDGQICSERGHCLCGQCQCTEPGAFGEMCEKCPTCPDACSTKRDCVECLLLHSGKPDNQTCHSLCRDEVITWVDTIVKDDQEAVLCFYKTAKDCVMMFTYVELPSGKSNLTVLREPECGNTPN
# Sequence of recombinant human integrin α5β1 (human) (P08648 42-1049, chain 1 of 2): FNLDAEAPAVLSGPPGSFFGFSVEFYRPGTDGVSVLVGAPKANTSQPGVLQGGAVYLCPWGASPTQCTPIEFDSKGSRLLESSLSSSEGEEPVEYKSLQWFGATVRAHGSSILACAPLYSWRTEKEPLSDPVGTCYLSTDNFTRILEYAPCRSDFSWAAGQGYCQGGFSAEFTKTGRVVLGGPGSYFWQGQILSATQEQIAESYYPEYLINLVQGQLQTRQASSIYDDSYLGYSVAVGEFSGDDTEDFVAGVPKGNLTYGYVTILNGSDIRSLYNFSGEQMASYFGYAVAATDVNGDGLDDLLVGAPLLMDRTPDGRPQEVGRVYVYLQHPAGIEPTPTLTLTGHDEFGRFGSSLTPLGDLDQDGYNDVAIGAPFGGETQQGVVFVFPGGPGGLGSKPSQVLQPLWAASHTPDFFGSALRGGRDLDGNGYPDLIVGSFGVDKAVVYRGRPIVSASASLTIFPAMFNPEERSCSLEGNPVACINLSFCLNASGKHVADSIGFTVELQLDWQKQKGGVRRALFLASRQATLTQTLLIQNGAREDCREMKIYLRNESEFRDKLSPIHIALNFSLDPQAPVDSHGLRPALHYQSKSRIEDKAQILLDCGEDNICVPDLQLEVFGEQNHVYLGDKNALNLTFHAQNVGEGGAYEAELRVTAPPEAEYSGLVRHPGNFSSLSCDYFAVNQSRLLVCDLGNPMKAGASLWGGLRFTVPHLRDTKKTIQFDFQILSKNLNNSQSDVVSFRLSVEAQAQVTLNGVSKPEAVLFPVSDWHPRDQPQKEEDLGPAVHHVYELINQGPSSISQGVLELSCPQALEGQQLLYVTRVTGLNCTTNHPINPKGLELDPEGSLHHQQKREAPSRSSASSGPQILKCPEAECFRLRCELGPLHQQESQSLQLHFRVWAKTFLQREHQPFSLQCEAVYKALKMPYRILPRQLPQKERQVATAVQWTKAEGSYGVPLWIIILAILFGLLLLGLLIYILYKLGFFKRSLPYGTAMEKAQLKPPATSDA
# Sequence of recombinant human integrin α5β1 (human) (P05556 21-728, chain 2 of 2, further chain): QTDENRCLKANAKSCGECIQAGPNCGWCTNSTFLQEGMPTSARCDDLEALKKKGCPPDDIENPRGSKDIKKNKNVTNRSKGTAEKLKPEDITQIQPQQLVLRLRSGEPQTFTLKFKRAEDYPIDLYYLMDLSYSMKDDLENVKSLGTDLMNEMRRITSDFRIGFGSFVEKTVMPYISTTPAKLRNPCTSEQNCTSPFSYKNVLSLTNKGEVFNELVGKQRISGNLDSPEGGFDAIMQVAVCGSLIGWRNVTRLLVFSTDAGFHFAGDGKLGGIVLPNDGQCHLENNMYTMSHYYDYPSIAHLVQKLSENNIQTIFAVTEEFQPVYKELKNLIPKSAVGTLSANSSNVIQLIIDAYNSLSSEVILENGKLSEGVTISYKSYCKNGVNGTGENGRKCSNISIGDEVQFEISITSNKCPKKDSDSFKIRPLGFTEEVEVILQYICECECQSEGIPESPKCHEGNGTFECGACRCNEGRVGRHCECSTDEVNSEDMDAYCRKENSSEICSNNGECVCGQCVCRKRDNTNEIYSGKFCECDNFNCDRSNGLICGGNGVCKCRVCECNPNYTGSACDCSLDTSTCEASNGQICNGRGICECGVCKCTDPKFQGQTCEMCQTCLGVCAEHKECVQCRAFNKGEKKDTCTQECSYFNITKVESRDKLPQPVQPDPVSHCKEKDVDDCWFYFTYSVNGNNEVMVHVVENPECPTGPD
Binder,binding in percent of wild type CagL [1],binding in percent of wild type CagL [2],binding in percent of wild type CagL [3]
B1,< 36%,< 36%,< 36%
B2,< 50%,< 50%,< 50%
